For experiment [1], the target named is C5b6 complex generated on convertase-labelled E. coli from C5 and C6 (human) (UniProt P01031).
For experiment [2] the target is unchanged. The source holds these as a separate data set.
For experiment [3] the target is unchanged. The source holds these as a separate data set.

Sequence of UniProt P01031 (P01031 19-673, chain 1 of 3): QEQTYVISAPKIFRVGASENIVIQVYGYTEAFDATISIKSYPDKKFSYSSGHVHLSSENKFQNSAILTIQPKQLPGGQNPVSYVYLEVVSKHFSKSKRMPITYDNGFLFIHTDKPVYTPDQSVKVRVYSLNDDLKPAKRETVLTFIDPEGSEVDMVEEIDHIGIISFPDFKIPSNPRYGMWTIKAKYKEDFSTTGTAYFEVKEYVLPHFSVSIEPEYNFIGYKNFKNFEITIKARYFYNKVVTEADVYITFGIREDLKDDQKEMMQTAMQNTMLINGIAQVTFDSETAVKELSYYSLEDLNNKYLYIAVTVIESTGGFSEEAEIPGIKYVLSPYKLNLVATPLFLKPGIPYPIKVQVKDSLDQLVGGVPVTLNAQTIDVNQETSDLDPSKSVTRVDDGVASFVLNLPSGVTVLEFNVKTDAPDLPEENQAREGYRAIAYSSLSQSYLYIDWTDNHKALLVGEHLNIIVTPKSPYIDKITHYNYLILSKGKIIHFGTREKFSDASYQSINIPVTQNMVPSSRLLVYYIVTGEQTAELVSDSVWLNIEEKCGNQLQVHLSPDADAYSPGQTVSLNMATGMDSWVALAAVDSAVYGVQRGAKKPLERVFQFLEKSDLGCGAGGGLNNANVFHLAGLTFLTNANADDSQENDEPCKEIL
Sequence of UniProt P01031 (P01031 752-1676, chain 2 of 3): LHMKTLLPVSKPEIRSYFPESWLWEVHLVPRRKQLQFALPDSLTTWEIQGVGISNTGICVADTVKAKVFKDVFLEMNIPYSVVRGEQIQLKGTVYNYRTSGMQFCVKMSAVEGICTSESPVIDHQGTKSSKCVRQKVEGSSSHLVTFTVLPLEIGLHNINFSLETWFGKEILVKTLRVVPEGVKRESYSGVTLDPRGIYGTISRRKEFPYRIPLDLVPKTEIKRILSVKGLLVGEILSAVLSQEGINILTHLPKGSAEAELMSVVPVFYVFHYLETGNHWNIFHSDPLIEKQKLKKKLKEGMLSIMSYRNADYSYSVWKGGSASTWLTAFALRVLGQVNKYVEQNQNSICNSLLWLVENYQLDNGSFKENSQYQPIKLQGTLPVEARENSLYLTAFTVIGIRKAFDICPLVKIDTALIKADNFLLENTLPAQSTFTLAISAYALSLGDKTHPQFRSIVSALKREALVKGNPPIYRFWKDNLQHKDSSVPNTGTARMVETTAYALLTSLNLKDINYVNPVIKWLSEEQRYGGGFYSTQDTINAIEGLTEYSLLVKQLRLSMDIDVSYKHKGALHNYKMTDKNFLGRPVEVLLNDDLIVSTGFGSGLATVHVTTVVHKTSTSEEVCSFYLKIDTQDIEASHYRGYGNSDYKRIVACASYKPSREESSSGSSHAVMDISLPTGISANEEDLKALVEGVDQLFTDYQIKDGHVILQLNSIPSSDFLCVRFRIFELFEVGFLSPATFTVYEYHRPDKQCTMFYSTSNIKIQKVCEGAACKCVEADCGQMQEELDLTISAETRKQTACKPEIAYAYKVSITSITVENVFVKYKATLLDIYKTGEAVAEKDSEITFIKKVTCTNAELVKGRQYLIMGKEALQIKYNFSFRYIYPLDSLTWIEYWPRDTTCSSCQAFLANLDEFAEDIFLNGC
Sequence of UniProt P01031 (P13671 22-934, chain 3 of 3, further chain): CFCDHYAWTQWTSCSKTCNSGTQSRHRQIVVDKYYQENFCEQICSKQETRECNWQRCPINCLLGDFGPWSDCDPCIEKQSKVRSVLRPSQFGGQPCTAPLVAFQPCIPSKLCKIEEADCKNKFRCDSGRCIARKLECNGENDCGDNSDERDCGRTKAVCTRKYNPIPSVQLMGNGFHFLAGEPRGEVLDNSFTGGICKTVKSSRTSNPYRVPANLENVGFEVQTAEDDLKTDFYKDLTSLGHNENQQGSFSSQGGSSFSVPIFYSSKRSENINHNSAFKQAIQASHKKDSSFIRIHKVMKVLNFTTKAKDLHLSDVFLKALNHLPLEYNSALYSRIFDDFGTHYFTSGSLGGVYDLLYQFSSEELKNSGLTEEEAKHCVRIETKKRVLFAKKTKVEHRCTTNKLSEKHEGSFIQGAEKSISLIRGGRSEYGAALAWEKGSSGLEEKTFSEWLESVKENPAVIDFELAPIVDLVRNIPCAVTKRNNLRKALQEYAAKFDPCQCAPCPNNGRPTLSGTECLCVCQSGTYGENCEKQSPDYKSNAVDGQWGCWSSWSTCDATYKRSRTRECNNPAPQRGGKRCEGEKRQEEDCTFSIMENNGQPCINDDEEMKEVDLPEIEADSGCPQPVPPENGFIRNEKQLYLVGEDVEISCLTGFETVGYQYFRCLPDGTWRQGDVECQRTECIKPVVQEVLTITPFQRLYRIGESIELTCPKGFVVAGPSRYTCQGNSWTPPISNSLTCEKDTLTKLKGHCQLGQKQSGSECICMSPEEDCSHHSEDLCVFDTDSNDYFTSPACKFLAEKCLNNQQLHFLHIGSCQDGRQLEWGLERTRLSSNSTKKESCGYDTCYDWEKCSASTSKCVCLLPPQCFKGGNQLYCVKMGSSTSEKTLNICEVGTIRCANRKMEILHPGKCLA

The substance “His-tagged complement component C7 (from UniProt P10643 23-843) (natural protein)” gave a percentage of Sytox positive (inner membrane damaged) E. coli MG1655 after addition of C8 and C9; C7 present from t = 0 (~100%) or added 60 minutes after C5b6 generation was initiated (~6%) in experiment [1] of 100%. Besides, the deposition of C6-Cy5 (geoMFI) on convertase-labelled E. coli MG1655 after 60 minutes, C5b6 generated in the presence of C7 against in its absence in experiment [2] was 10 fold. In experiment [3], the deposition of C9-Cy5 (geoMFI) on E. coli MG1655, C5b6 generated in the absence of C7 against in the presence of C7 stood at 50 fold and the fluorescence ratio C9:C6 on E. coli MG1655, C5b6 generated in the presence of C7 against in the absence of C7 was 10 fold.

These data come from paper PMC7351214.
